Measurements: US20250277032A1 (BIOND BIOLOGICS, published 2025)
Blank lines part the entries; values can stand above or below the binder they belong to.

Target: T1, human ILT3 on the cell surface (recombinant human ILT3 exogenously overexpressed on HEK cells); ILT3 on THP-1 … (human, UniProt Q8NHJ6 22-448)
T1 construct: whole, on cells; also called membranal ILT3; hILT3
Assay: flow cytometry on HEK cells overexpressing recombinant human ILT3

binding result: binds
B1: 3F6 (antibody, V domains shown)
VH: EVKLVESGGGLVKPGGSLKLSCAASGFTFSSYAMSWVRQTPAKRLEWVAAITFGGGNTYYPDSVKGRFTISRDNARNTLYLQMSSLRSEDTAMYYCARHGDGNYDFYAMDYWGQGTSVTVSS
VL: DIVMTQSPSSLTVTAGEKVTMSCKSSQSLLNSGNQKNYLTWYQQKPGQPPKLLIYWASTRESGVPDRFTGSGSRTDFTLTISRVQAEDLAVYYCQNDYSYPLTFGAGTKLELK
notes: Hybridoma (mouse) antibody

binding result: binds
B2: 7A5 (antibody, V domains shown)
VH: EVKLVESGGGLVKPGGSLKLSCAASGFTFSSYAMSWVRQTPAKRLEWVATISSDGGNTYYTDSVKGRFTISRDNARNTLDLQMSSLRSEDTAMYYCARHDGRGALDYWGQGTSVTVSS
VL: DIQMTQTTSSLSASLGDRVTISCRASQDISNYLNWYQQKPDGTVKLLIYYTSRLHSGVPSRFSGSGSGTDYSLTISNLEQEDIATYFCQQGNTLPWTFGGGTKLEIK
notes: Hybridoma (mouse) antibody
